Laboratory results from patent US20110053865A1 (Ablynx, published 2011).
Values joined by “and” are separate entries in the source; they are usually repeats but may differ in a detail not shown here. Equal entries are not always repeated. Where two headings read alike, the source gives them in different places.

Tests used:
[1] = molecular target: T1, recombinant human IL-23 (p19/p40) (human, UniProt Q9NPF7 20-189; P29460 23-328); test: SPR Biacore, hIL-23
T1 construct: Bought heterodimer (R&D Systems or eBioscience); biotinylated in the alpha-screens; also called hIL-23
T1 sequence (looked up) 1: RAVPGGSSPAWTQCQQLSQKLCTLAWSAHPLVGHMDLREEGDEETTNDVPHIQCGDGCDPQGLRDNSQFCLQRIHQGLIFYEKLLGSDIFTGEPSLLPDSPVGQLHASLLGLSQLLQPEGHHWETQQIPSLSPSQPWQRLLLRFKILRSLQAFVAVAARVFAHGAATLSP
T1 sequence (looked up) 2: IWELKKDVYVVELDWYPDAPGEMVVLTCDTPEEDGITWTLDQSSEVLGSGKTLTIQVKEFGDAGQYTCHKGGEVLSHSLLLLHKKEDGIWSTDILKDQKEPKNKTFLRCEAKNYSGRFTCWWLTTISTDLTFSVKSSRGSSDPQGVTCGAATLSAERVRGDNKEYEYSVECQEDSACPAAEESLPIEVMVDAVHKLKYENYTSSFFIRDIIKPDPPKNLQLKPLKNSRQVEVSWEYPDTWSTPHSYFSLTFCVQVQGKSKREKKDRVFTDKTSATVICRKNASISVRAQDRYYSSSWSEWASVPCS

[2] = molecular target: T1, recombinant human IL-23 (p19/p40); test: SPR Biacore, hIL-23; remark: listed apart in the source
[3] = molecular target: T1, recombinant human IL-23 (p19/p40); test: SPR Biacore, eBiosc hIL-23
[4] = molecular target: T1, recombinant human IL-23 (p19/p40); test: SPR Biacore, hIL-23; remark: listed apart in the source
[5] = molecular target: T1, recombinant human IL-23 (p19/p40); test: SPR Biacore, hIL-23; remark: listed apart in the source
[6] = molecular target: T1, recombinant human IL-23 (p19/p40); test: cell-based or functional assay
[7] = molecular target: cynomolgus IL-23 (cynomolgus); test: cell-based or functional assay
[8] = molecular target: T1, recombinant human IL-23 (p19/p40); test: cell-based or functional assay; remark: listed apart in the source
[9] = molecular target: T1, recombinant human IL-23 (p19/p40); test: inhibition ELISA, hIL-23/hIL-23R-Fc
Description: Visualisation was performed with enhanced soluble 3,3′,5,5′-tetramethylbenzidine (esTMB) colouring reagent, after which the coloring reaction was stopped with 1N HCl. The absorbance was measured at 450 nm.

[10] = molecular target: T1, recombinant human IL-23 (p19/p40); test: cell-based or functional assay; remark: listed apart in the source
[11] = molecular target: T1, recombinant human IL-23 (p19/p40); test: cell-based or functional assay; remark: listed apart in the source
[12] = molecular target: T1, recombinant human IL-23 (p19/p40); test: cell-based or functional assay; remark: listed apart in the source
[13] = molecular target: T1, recombinant human IL-23 (p19/p40); test: cell-based or functional assay; remark: listed apart in the source
[14] = molecular target: cynomolgus IL-23 (cynomolgus); test: cell-based or functional assay; remark: listed apart in the source
[15] = molecular target: cynomolgus IL-23 (cynomolgus); test: cell-based or functional assay; remark: listed apart in the source
[16] = molecular target: T1, recombinant human IL-23 (p19/p40); test: cell-based or functional assay; remark: listed apart in the source
[17] = molecular target: T1, recombinant human IL-23 (p19/p40); test: comp alpha-screen hIL-23
[18] = molecular target: T1, recombinant human IL-23 (p19/p40); test: SPR Biacore, hIL-23 on chip
Description: Nanobody binding was assessed at one concentration (100 nM). Each Nanobody was injected for 4 minutes at a flow rate of 45 μl/min to allow binding to chip-bound antigen. Next, binding buffer without Nanobody was sent over the chip at the same flow rate to allow spontaneous dissociation of bound Nanobody.

[19] = molecular target: T1, recombinant human IL-23 (p19/p40); test: alpha-screen, hIL-23/IL-23R-Fc
Description: (§1) Human IL-23R-Fc chimera and hIL12Rbeta1-Fc chimera (R&D Systems, Minneapolis, Minn., US) were coupled to acceptor beads according to manufacturer instructions (Perkin Elmer, Waltham, Mass., US).
(§2) To this mixture, the IL-23R acceptor beads and the streptavidin donor beads were added and further incubated for 1 hour at RT.

[20] = molecular target: T2, cynomolgus IL-23 (cynomolgus); test: SPR Biacore, cyno IL-23 on chip
T2 construct: also called cyno IL-23; cIL-23

[21] = molecular target: T2, cynomolgus IL-23; test: alpha-screen, cyno IL-23/IL-23R-Fc
Description: as §1, §2

[22] = molecular target: T1, recombinant human IL-23 (p19/p40); test: SPR Biacore, hIL-23 on chip, several concentrations
[23] = molecular target: T1, recombinant human IL-23 (p19/p40); test: 'potency assay', not specified (probably the inhibition ELISA of Example 34)
[24] = molecular target: T1, recombinant human IL-23 (p19/p40); test: cell-based or functional assay; remark: listed apart in the source
[25] = molecular target: T2, cynomolgus IL-23; test: cell-based or functional assay; remark: listed apart in the source
[26] = molecular target: T2, cynomolgus IL-23; test: alpha-screen, cIL-23/IL-23R
[27] = molecular target: T1, recombinant human IL-23 (p19/p40); test: alpha-screen, hIL-23/IL-23R
[28] = molecular target: T1, recombinant human IL-23 (p19/p40); test: SPR Biacore 3000, hIL-23 on chip
Description: Binding kinetics of the second round variants are in depth analysed by Surface Plasmon Resonance (Biacore 3000). […] Nanobody binding was assessed at one concentration (100 nM). Each Nanobody was injected for 4 minutes at a flow rate of 45 μl/min to allow binding to chip-bound antigen. Next, binding buffer without Nanobody was sent over the chip at the same flow rate to allow spontaneous dissociation of bound Nanobody.

B1: P23IL81G2-BASIC (VHH, name in Kabat numbering)
VHH: EVQLVESGGGLVQPGGSLRLSCIASGLPFSTKSMGWFRQAPGKGREFVARISPGGTSRYYGDFVKGRFAISRDNAKNTTWLQMNSLKAEDTAVYYCASGERSTYIGSNYYRTNEYDYWGTGTLVTVSS
notes: The sentence giving the two substitutions prints 'P23IL81A12basic' within the 81G2 paragraph
With B1 as the binder, how does the koff [1] read?
Its koff is 0.00032 s⁻¹.

B2: P23IL81G2 (VHH)
VHH: EVQLVESGGGLVQPGGSLRLSCIASGLPFSTKSMGWFRQAPGKEREFVARISPGGTSRYYGDFVKGRFAISRDNAKNTTWLQMNSLKAEDTAVYYCASGERSTYIGSNYYRTNEYDYWGTGTQVTVSS
notes: p19- Nanobody
What does the source list for B2?
koff [1]: 0.00034 s⁻¹; koff [2]: 0.00039 s⁻¹; kon [2]: 520000 M⁻¹ s⁻¹; Kd [3]: 0.75 nM

B3: P23IL81G2v11 (VHH)
VHH: EVQLLESGGGLVQPGGSLRLSCAASGLPFSTKSMGWFRQAPGKGREFVSRISPGGTSRYYGDFVKGRFTISRDNSKNTLYLQMNSLRAEDTAVYYCASGERSTYIGSNYYRTNEYDYWGQGTLVTVSS
notes: Final humanization variant of 81G2
Which results are given for B3?
koff [2]: 0.00031 s⁻¹; kon [2]: 610000 M⁻¹ s⁻¹; Kd [3]: 0.51 nM

B4: P23IL81A12 (VHH)
VHH: EVQLVESGGGLVQAGGSLRLSCAASGRTLSSYAMGWFRQAPGKEREFVARISQGGTAIYYADSVKGRFTISRDNAKNTVYLQMNSLKPEDTAVYYCAKDPSPYYRGSAYLLSGSYDSWGQGTQVTVSS
notes: p19- Nanobody
Which results are given for B4?
koff [4]: 0.00022 s⁻¹; Kd [5]: 0.38 nM; koff [5]: 0.00021 s⁻¹; kon [5]: 560000 M⁻¹ s⁻¹

B5: P23IL81A12-BASIC (VHH)
VHH: EVQLVESGGGLVQPGGSLRLSCAASGRTLSSYAMGWFRQAPGKEREFVARISQGGTAIYYADSVKGRFTISRDNAKNTLYLQMNSLRPEDTAVYYCAKDPSPYYRGSAYLLSGSYDSWGQGTLVTVSS
For B5, which koff [4] is on record?
The koff was 0.00024 s⁻¹.

B6: P23IL119A3V16-35GS-81G2V11-HSA (bispecific antibody)
chain: EVQLLESGGGLVQPGGSLRLSCAASGRIFSLPASGNIFNLLTIAWYRQAPGKGRELVATINSGSRTYYADSVKGRFTISRDNSKKTLYLQMNSLRPEDTAVYYCQTSGSGSPNFWGQGTLVTVSSGGGGSGGGGSGGGGSGGGGSGGGGSGGGGSGGGGSEVQLLESGGGLVQPGGSLRLSCAASGLPFSTKSMGWFRQAPGKGREFVSRISPGGTSRYYGDFVKGRFTISRDNSKNTLYLQMNSLRAEDTAVYYCASGERSTYIGSNYYRTNEYDYWGQGTLVTVSS
notes: also called P23IL0065; 23IL0065; not shown: full length human serum albumin fused directly to the C-terminus
B6 was tested. Which “IC50, splenocyte assay, 19 pM hIL-23” value [6] did it give?
The value was 4.6 pM.

And the “IC50, splenocyte assay, 3.8 pM cIL-23” value [7]?
Its value is 6.7 pM.

What about the “IC50, BA/F3 proliferation assay, 76 pM hIL-23” value [8] of the same binder?
The value was 125 pM.

What about the IC50 [9] of the same binder?
The IC50 was 0.038 nM.

B7: P23IL-121A2-35GS-119G7 (bispecific antibody)
chain: EVQLVESGGGLVQAGGSLRLSCAASGSIFNFNYMGWFRQAPGKEREFVAAIRWSGSSTYYADSVKGRFTISRDDAKNTVALQMNSLKPEDTAIYYCALRKGIPYSTSDRVIKGVNDYDYWGQGTQVTVSSGGGGSGGGGSGGGGSGGGGSGGGGSGGGGSGGGGSEVQLVESGGGLVQAGGSLTLSCAVSGLTFNNYAMGWFRQVPGKEREFVAAISRSGLRTFYSDSVKGRFTISRDSAKSTVYVQMNNLKPEDTAVYFCAADRRTYYSEGPSLTDTLRYDYWGQGTQVTVSS
Which “IC50, splenocyte assay (mIL-17)” value [10] does the source give for B7 here?
The value was 0.03 to 0.06 nM.

And the “IC50, splenocyte assay, 37 pM hIL-23” value [11]?
The value was 42 pM.

And the “IC50, splenocyte assay, 19 pM hIL-23” value [12]?
Its value is 26 pM.

B8: P23IL37D5 (VHH)
VHH: EVQLVESGGGLVQPGGSLRLSCAASGFTLDYLAIGWFRQAPGKEREGVSCVSSSGQYTYYADSVKGRFTISRDNAESTVYLQMNSLKPEDTAVYYCATDPECYRVRGYYNGEYDYWGQGTQVTVSS
notes: p19+ Nanobody; c-myc, His6-tagged; also called PIL2337D5
With B8 as the binder, how does the “IC50, mouse splenocyte assay (mIL-22)” value [13] read?
Its value is 0.017 nM.

And the “IC50, mouse splenocyte assay (mIL-22)” value [14]?
The value was 0.288 nM.

And the “IC50, splenocyte assay, 19 pM hIL-23” value [12]?
The value was 24 pM.

And the “IC50, splenocyte assay, 3.8 pM cIL-23” value [15]?
The value was 212 pM.

And the “IC50, BAF3 proliferation assay, 76 pM hIL-23” value [16]?
Its value is 13 pM.

And the IC50 [17]?
The IC50 was 0.176 nM.

What about the koff [18] of the same binder?
The koff was 0.00019 s⁻¹.

What about the IC50 [19] of the same binder?
The IC50 was 0.11 nM.

What about the koff [20] of the same binder?
Its koff is 0.00051 s⁻¹.

What about the IC50 [21] of the same binder?
Its IC50 is 0.32 nM.

What about the Kd [22] of the same binder?
The Kd was 0.57 nM.

What about the koff [22] of the same binder?
The koff was 0.00018 s⁻¹.

What about the IC50 [23] of the same binder?
The IC50 was 0.0384 nM.

B9: P23IL37D5v16 (VHH)
VHH: EVQLLESGGGLVQPGGSLRLSCAASGFTLDYLAIGWFRQAPGKGREGVSCVSSSGQYTYYADSVKGRFTISRDNSKNTVYLQMNSLRPEDTAVYYCATDPECYRVRGYYNGEYDYWGQGTLVTVSS
notes: Humanization variant of 37D5
Which results are given for B9?
IC50 [17]: 0.044 nM; IC50 [23]: 0.0888 nM

B10: P23IL119A3V16-35GS-81G2V11-GGGC-PEG40 linear (bispecific antibody)
chain: EVQLLESGGGLVQPGGSLRLSCAASGRIFSLPASGNIFNLLTIAWYRQAPGKGRELVATINSGSRTYYADSVKGRFTISRDNSKKTLYLQMNSLRPEDTAVYYCQTSGSGSPNFWGQGTLVTVSSGGGGSGGGGSGGGGSGGGGSGGGGSGGGGSGGGGSEVQLLESGGGLVQPGGSLRLSCAASGLPFSTKSMGWFRQAPGKGREFVSRISPGGTSRYYGDFVKGRFTISRDNSKNTLYLQMNSLRAEDTAVYYCASGERSTYIGSNYYRTNEYDYWGQGTLVTVSSGGGC
modifications: linear mPEG40 (maleimide) on the C-terminal Cys of GGGC
notes: also called P23IL0063; 23IL0063
How did the “IC50, splenocyte assay, 19 pM hIL-23” value [6] turn out when B10 was run?
The value was 2.7 pM.

What about the “IC50, splenocyte assay, 3.8 pM cIL-23” value [7] of the same binder?
The value was 13.1 pM.

What about the “IC50, BA/F3 proliferation assay, 76 pM hIL-23” value [8] of the same binder?
Its value is 71 pM.

And the IC50 [9]?
Its IC50 is 0.025 nM.

B11: P23IL36A4 (VHH)
VHH: EVQLVESGGGLVQAGGSLRLSCVASERTFSSSAMGWFRQAPGKEREFVAAIGWSGGGFIHYGDSVKGRFTISADNGKNTVYLQMNSLKPEDTAVYYCAADSRLRGIALLKGSYDYRGQGTQVTVSS
notes: p19+ Nanobody; c-myc, His6-tagged; also called P23IL 36A4 (=36G2); 36G2
For B11, which “IC50, mouse splenocyte assay (mIL-22)” value [13] is on record?
The value was 3.12 nM.

And the “IC50, mouse splenocyte assay (mIL-22)” value [14]?
The value was 11 nM.

What about the koff [18] of the same binder?
Its koff is 0.0009 s⁻¹.

What about the IC50 [19] of the same binder?
The IC50 was 1 nM.

What about the koff [20] of the same binder?
Its koff is 0.0012 s⁻¹.

What about the IC50 [21] of the same binder?
The IC50 was 0.47 nM.

B12: P23IL119A3v16 (VHH)
VHH: EVQLLESGGGLVQPGGSLRLSCAASGRIFSLPASGNIFNLLTIAWYRQAPGKGRELVATINSGSRTYYADSVKGRFTISRDNSKKTLYLQMNSLRPEDTAVYYCQTSGSGSPNFWGQGTLVTVSS
notes: Final humanization variant of 119A3
How did the “IC50, splenocyte assay hIL-23” value [24] turn out when B12 was run?
The value was 45.1 nM.

And the “IC50, splenocyte assay cIL-23” value [25]?
Its value is 82.6 nM.

And the IC50 [26]?
Its IC50 is 0.7 nM.

What about the IC50 [27] of the same binder?
Its IC50 is 1.24 nM.

And the koff [28]?
Its koff is 0.0055 s⁻¹ and 0.0019 s⁻¹.
